From paper PMC11570452, “MOTS-c modulates skeletal muscle function by directly binding and activating CK2” (iScience, 2024)

Biological target: T1, CK2α (recombinant, GenScript) (UniProt P68400 1-391)
T1 construct: CK2α, catalytic alpha subunit of casein kinase II; No catalogue number, species or construct is printed; also called CK2α subunit; CK2 alpha; source: bought: GenScript
Assay: SPR; Biacore T200; MOTS-c or K14Q MOTS-c (10 μg/mL, 10 mM sodium acetate pH 5.0) immobilised on CM5 chip (278 RU and 193 RU); first 70 nM CK2α or CK2β, then CK2α at 2.5, 5.0, 10 and 20 nM flowed at 30 μL/min in 0.01 M HEPES, 0.15 M NaCl, 0.3 mM EDTA, 0.05% tween
Conditions: both partners purified

T1 sequence (P68400 whole entry): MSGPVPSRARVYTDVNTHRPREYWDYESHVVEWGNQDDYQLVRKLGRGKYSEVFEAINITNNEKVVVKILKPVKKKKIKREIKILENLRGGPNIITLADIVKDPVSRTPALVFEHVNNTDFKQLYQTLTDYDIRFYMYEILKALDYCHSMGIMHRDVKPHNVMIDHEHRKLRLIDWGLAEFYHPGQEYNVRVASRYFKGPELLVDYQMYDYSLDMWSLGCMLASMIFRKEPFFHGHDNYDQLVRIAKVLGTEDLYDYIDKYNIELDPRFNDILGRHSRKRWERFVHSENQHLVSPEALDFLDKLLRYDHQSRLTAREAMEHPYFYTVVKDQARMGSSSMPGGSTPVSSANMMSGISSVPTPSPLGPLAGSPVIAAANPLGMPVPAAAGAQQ

Binder	Kd
MRWQEMGYIFYPRKLR (MOTS-c, human, 16-amino acid microprotein encoded in the mitochondrial 12S rRNA region; also called WT MOTS-c; synthetic MOTS-c; source: synthetic peptide, bought: GenScript; for the co-IP injected into mice (7.5 mg/kg) and found in tissue lysate) [MOTS-c (mitochondrial open reading frame of the 12S ribosomal RNA type-c), wild type]	1 nM
MRWQEMGYIFYPRQLR (peptide, UniProt A0A0C5B5G6 1-16, looked up, MOTS-c, human, natural variant m.1382A>C causing K14Q; source: synthetic peptide, bought: GenScript) [K14Q MOTS-c (naturally occurring MOTS-c variant)]	16.2 nM
